# B1: mRNA-splicing (parent)
# chain: AGUUGCUGCUGGGAGCUCCAGCACAGUGAAAUGGACAGAAGGGCAGAGCAA
# Variants of: B1
# Assay: exon inclusion enrichment index; higher = more inclusion; WT1 exon 5 minigene, HEK293
row,Variant,exon inclusion enrichment index
1,C6A U7A C9A U10A G11U G12A,0.701
2,C6A U7A C9A U10A G11U G12C,2.55
3,C6A U7A C9A U10A G11U G12U,1.53
4,C6A U7A C9A U10A G34U A35G,0.134
5,C6A U7A C9A U10A G34U A35C,0.203
6,C6A U7A C9A U10A G34U A35U,0.0771
7,C6A U7A C9A U10A G46U,0.388
8,C6A U7A C9A U10A G46A,0.993
9,C6A U7A C9A U10A G46C,0.722
10,C6A U7A C9A U10A G34A,0.344
11,C6A U7A C9A U10A G34U,0.123
12,C6A U7A C9A U10A G34C,0.179
13,C6A U7A C9A U10A G41U,0.866
14,C6A U7A C9A U10A G41A,0.4
15,C6A U7A C9A U10A G41C,2.07
16,C6A U7A C9A U10A G43C C44A,2.09
17,C6A U7A C9A U10A G43C C44U,0.606
18,C6A U7A C9A U10A G43C C44G,3.16
19,C6A U7A C9A U10A U32A G33U,0.298
20,C6A U7A C9A U10A U32A G33A,0.234
21,C6A U7A C9A U10A U32A G33C,0.991
22,C6A U7A C9A U10A G43A C44U,0.656
23,C6A U7A C9A U10A G43A C44G,2.4
24,C6A U7A C9A U10A G43A C44A,1.84

row,Variant,exon inclusion enrichment index
1,C6A U7A C9A U10A C24U A25G,1.3
2,C6A U7A C9A U10A C24U A25U,0.761
3,C6A U7A C9A U10A C24U A25C,2.5
4,C6A U7A C9A U10A C24G,0.763
5,C6A U7A C9A U10A C24A,0.545
6,C6A U7A C9A U10A C24U,0.161
7,C6A U7A C9A U10A G33C,1.04
8,C6A U7A C9A U10A G33A,0.0584
9,C6A U7A C9A U10A G33U,0.2
10,C6A U7A G8A C9U U10A,0.0156
11,C6A U7A C9A U10C,2.59
12,C6A U7A C9A U10G,0.498
13,C6A U7A C9A U10A U17G C18A,0.619
14,C6A U7A C9A U10A U17G C18U,0.46
15,C6A U7A C9A U10A U17G C18G,0.391
16,C6A U7A C9A U10A G13A A14U,1.82
17,C6A U7A C9A U10A G13A A14C,2.82
18,C6A U7A C9A U10A G13A A14G,1.21
19,C6A U7A G8C C9A U10C,1.95
20,C6A U7A G8C C9A U10A,0.471
21,C6A U7A C9A U10A G46A A47G,0.249
22,C6A U7A C9A U10A G46A A47C,1.64
23,C6A U7A C9A U10A G46A A47U,0.928
24,C6A U7A G8U C9A,0.467

row,Variant,exon inclusion enrichment index
1,C6A U7A C9A U10A G42U G43C,0.532
2,C6A U7A C9A U10A G42U G43U,1.61
3,C6A U7A C9A U10A G42U G43A,1.42
4,C6A U7A G8A U10A,0.0891
5,C6A U7A C9A U10A C19G A20G,0.289
6,C6A U7A C9A U10A C19G A20U,0.62
7,C6A U7A C9A U10A C19G A20C,1.03
8,C6A U7A C9A U10A G26U U27C,2.22
9,C6A U7A C9A U10A G26U U27A,0.264
10,C6A U7A C9A U10A G26U U27G,1.76
11,C6A U7A C9A U10A G11C G12A,1.98
12,C6A U7A C9A U10A G11C G12C,2.68
13,C6A U7A C9A U10A G11C G12U,1.91
14,C6A U7A C9A U10A A47U,0.546
15,C6A U7A C9A U10A A47G,0.13
16,C6A U7A C9A U10A G21U C22G,0.565
17,C6A U7A C9A U10A G21U C22A,0.136
18,C6A U7A C9A U10A G21U C22U,0.172
19,C6A U7A G8C C9U U10A,0.0222
20,C6A U7A C9A U10A C36U A37G,0.602
21,C6A U7A C9A U10A C36U A37C,0.478
22,C6A U7A C9A U10A C36U A37U,0.411
23,C6A U7A C9A U10A G48C,1.15
24,C6A U7A C9A U10A G48U,1.17

row,Variant,exon inclusion enrichment index
1,C6A U7A C9A U10A G48A,1.3
2,C6A U7A C9A U10A C22G,0.964
3,C6A U7A C9A U10A C22A,0.593
4,C6A U7A C9A U10A C22U,0.414
5,C6A U7A G8U C9G U10A,0.135
6,C6A U7A C9A U10A C36G A37G,0.0922
7,C6A U7A C9A U10A C36G A37U,0.216
8,C6A U7A C9A U10A C36G A37C,0.129
9,C6A U7A C9A U10A C16U U17G,0.212
10,C6A U7A C9A U10A C16U U17C,0.225
11,C6A U7A C9A U10A C16U U17A,0.291
12,C6A U7A G8A C9G U10A,0.2
13,C6A U7A C9A U10A G28C A29C,0.683
14,C6A U7A C9A U10A G28C A29G,1.45
15,C6A U7A C9A U10A G28C A29U,0.358
16,C6A U7A C9A U10A C18U C19U,0.00807
17,C6A U7A C9A U10A C18U C19G,0.119
18,C6A U7A C9A U10A C18U C19A,0.046
19,C6A U7A C9A U10A C36A,0.531
20,C6A U7A C9A U10A C36G,0.433
21,C6A U7A C9A U10A C36U,0.122
22,C6A U7A C9A U10A C18A C19G,0.0285
23,C6A U7A C9A U10A C18A C19U,0.0166
24,C6A U7A C9A U10A C18A C19A,0.0959

row,Variant,exon inclusion enrichment index
1,C6A U7A C9U U10G,0.0647
2,C6A U7A C9U U10C,1.36
3,C6A U7A C9U U10A,0.0203
4,C6A U7A C9A U10A C44U A45G,0.419
5,C6A U7A C9A U10A C44U A45U,0.433
6,C6A U7A C9A U10A C44U A45C,1.16
7,C6A U7A C9G U10G,0.0939
8,C6A U7A C9G U10A,0.286
9,C6A U7A C9G U10C,1.05
10,C6A U7A C9A U10A G42C,1.99
11,C6A U7A C9A U10A G42A,1.81
12,C6A U7A C9A U10A G42U,0.988
13,C6A U7A C9A U10A G38U A39C,0.692
14,C6A U7A C9A U10A G38U A39G,0.321
15,C6A U7A C9A U10A G38U A39U,0.0139
16,C6A U7A C9A U10A A47U G48U,0.748
17,C6A U7A C9A U10A A47U G48C,0.497
18,C6A U7A C9A U10A A47U G48A,0.579
19,C6A U7A G8U C9A U10C,1.38
20,C6A U7A G8U C9A U10A,0.117
21,C6A U7A G8U C9U U10A,0.00366
22,C6A U7A C9A U10A G28C,0.528
23,C6A U7A C9A U10A G28A,0.174
24,C6A U7A C9A U10A G28U,0.147

row,Variant,exon inclusion enrichment index
1,C6A U7A C9A U10A G13U A14U,0.534
2,C6A U7A C9A U10A G13U A14G,0.553
3,C6A U7A C9A U10A G13U A14C,1.14
4,C6A U7A C9A U10A G41A G42A,0.559
5,C6A U7A C9A U10A G41A G42C,1.25
6,C6A U7A C9A U10A G41A G42U,0.617
7,C6A U7A C9A U10A U17C C18U,0.491
8,C6A U7A C9A U10A U17C C18G,0.655
9,C6A U7A C9A U10A U17C C18A,0.476
10,C6A U7A C9A U10A U17A C18G,0.498
11,C6A U7A C9A U10A U17A C18U,0.445
12,C6A U7A C9A U10A U17A C18A,0.427
13,C6A U7A C9A U10A U17G,0.51
14,C6A U7A C9A U10A U17C,0.424
15,C6A U7A C9A U10A U17A,0.63
16,C6A U7A C9A U10A C36A A37C,0.81
17,C6A U7A C9A U10A C36A A37U,0.229
18,C6A U7A C9A U10A C36A A37G,0.204
19,C6A U7A C9A U10A G34A A35G,0.208
20,C6A U7A C9A U10A G34A A35U,0.216
21,C6A U7A C9A U10A G34A A35C,0.52
22,C6A U7A C9A U10A G15U,0.786
23,C6A U7A C9A U10A G15C,1.25
24,C6A U7A C9A U10A G15A,0.818

row,Variant,exon inclusion enrichment index
1,C6A U7A C9A U10A G41U G42A,0.192
2,C6A U7A C9A U10A G41U G42C,1.58
3,C6A U7A C9A U10A G41U G42U,0.717
4,C6A U7A C9A U10A G15A C16A,0.363
5,C6A U7A C9A U10A G15A C16U,0.351
6,C6A U7A C9A U10A G15A C16G,0.366
7,C6A U7A C9A U10A U27A,0.945
8,C6A U7A C9A U10A U27C,1.97
9,C6A U7A C9A U10A U27G,0.189
10,C6A U7A C9A U10A G21A C22G,0.568
11,C6A U7A C9A U10A G21A C22U,0.235
12,C6A U7A C9A U10A G21A C22A,0.228
13,C6A U7A C9A U10A G33C G34U,0.522
14,C6A U7A C9A U10A G33C G34C,0.353
15,C6A U7A C9A U10A G33C G34A,0.421
16,C6A U7A C9A U10A G13C A14G,1.42
17,C6A U7A C9A U10A G13C A14U,1.56
18,C6A U7A C9A U10A G13C A14C,1.58
19,C6A U7A C9A U10A C24G A25G,0.308
20,C6A U7A C9A U10A C24G A25U,0.778
21,C6A U7A C9A U10A C24G A25C,2.12
22,C6A U7A C9A U10A G15U C16U,0.36
23,C6A U7A C9A U10A G15U C16A,0.381

# — the RNAGym collection of RNA variant scans (doi:10.1101/gr.219683.116)
